In patent US20220064302A1 (GIGAGEN, published 2022):

Columns and labels:
[1] = molecular target: T1, human PD-1 (soluble PD-1 protein, R&D Systems) (human, UniProt Q15116 25-170, limits assumed); experiment: BLI, mAb on AHC biosensor, PD-1 as analyte
T1 construct: the kinetics paragraphs say only 'PD-1' / 'antigen'; also called hPD-1; soluble PD-1 immunogen
Experimental: The binding specificity and affinity of each full-length antibody towards PD-1 were determined using BLI and/or SPR. […] Anti-cyno PD-1 affinity was measured using BLI.
(§1) For BLI, antibodies were loaded onto an Anti-Human IgG Fc (AHC) biosensor using the Octet Red96 system (ForteBio). Loaded biosensors were dipped into antigen dilutions beginning at 300 nM, with 6 serial dilutions at 1:3. Kinetic analysis was performed using a 1:1 binding model and global fitting.

[2] = molecular target: T1, human PD-1 (soluble PD-1 protein, R&D …); experiment: BLI (ForteBio), mAb on AHC biosensor, PD-1 as analyte
Experimental: as §1

[3] = molecular target: PD-1 expressed on cells (human, UniProt Q15116 25-288); experiment: cell-based or functional assay
PD-1 expressed on cells, sequence (Q15116 25-288 limits assumed): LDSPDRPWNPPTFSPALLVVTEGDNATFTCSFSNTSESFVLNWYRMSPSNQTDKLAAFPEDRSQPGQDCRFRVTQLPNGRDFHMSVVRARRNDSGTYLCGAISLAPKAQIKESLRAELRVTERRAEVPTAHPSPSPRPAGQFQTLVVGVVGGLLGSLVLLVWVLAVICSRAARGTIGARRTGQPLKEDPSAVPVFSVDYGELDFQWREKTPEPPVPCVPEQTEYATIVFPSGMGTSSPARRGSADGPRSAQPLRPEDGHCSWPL

T1 sequence (Q15116 25-170 limits assumed): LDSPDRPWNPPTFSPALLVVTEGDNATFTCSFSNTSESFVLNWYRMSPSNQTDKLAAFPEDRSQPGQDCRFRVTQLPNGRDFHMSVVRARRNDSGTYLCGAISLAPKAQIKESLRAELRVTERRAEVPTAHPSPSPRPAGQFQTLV

| Binder | Kd [1] | Kd [2] | koff [2] | kon [2] | PD-1/PD-L1 blockage (IC50, µg/ml) [3] |
| --- | --- | --- | --- | --- | --- |
| A15 (antibody, V domains shown, Tested as full-length mAb expressed in CHO cells; also called antibody 15; L15H15) VH: QVQLQESGPGLVKPSETLSLTCTVSGGSISSYYWSWIRQPPGKGLEWIGYIYYSGSTNYNPSLKSRVTISEDTSKNQFSLKLSSVTAADTAVYYCARDEGATFFDYWGQGTLVTVSS VL: not shown | 8.3 nM | 8.32 nM | 0.00195 s⁻¹ | 235000 M⁻¹ s⁻¹ | – |
| A23 (antibody, V domains shown, Tested as full-length mAb expressed in CHO cells; also called antibody 23; L23H23) VH: QVQLVESGGGVVQPGRSLRLSCVASGFTFSNYGMHWVRQAPGKGLEWVAIIWYDGSIKYYADSVKGRFTISRDNSKNTLHLQMNSLRAEDTAVYYCARWGIYFDYWGQGTLVTVSS VL: EIVMTQSPATLSVSPGERATLSCRASQSVSSNLAWYQQKPGQAPRLLIYGASTRATGIPARFSGSGSGTEFTLTISSLQSEDFAVYYCQQYHNWPLTFGGGTKVEIK | 83.8 nM | 83.8 nM | 0.00184 s⁻¹ | 22000 M⁻¹ s⁻¹ | 0.116 µg/mL |
| A24 (antibody, V domains shown, Tested as full-length mAb expressed in CHO cells; also called antibody 24; L24H24) VH: QVQLVESGGGVVQPGRSLRLSCAASGFTFSDSGMHWVRQAPGKGLEWVAVIWYDGSKKYYVDSVKGRFTISRDNSKNTLYLQMNSLRAEDTAVYYCATEGDYWGQGTLVTVSS VL: EIVMTQSPATLSVFPGERATLSCRASQSVSSNLGWYQQKPGQAPRLLMYGASTRVTGIPARFSGSGSGTEFTLTISSLQSEDFAVYYCQQYNTWPRTFGQGTKVEIK | 8.5 nM | 8.5 nM | 0.00185 s⁻¹ | 217000 M⁻¹ s⁻¹ | 0.266 µg/mL |
| A16 (antibody, V domains shown, Tested as full-length mAb expressed in CHO cells; also called antibody 16; L16H16) VH: QVQLVESGGGVVQPGRSLTLSCAASGFTFSNYGMYWVRQAPGKGLEWVAVIWYDGSNKYYADSVKGRFTISRDNSKNTLYLQMNSLRAEDTAVYYCAGGGSYSGDYWGQGTLVTVSS VL: DIQMTQSPSSLSASVGDRVTITCRTSQDIRNDLGWYQQKPGKAPKRLIYAVSSLQSGVPSRFSGSGSGTEFTFTISSLQPEDFATYYCLQYNTYPFTFGPGTTVDIK | 86 nM | 86 nM | 0.00655 s⁻¹ | 76100 M⁻¹ s⁻¹ | 0.556 µg/mL |
| A22 (antibody, V domains shown, Tested as full-length mAb expressed in CHO cells; also called antibody 22; L22H22) VH: QVQLVESGGGVVQPGRSLRLSCAASGFTFSNYGMHWVRQAPGKGLEWVAVIWYDGSNKYYADSVKGRFTISRDNSKNTLYLQMNSLRAEDTAVYYCARLYYYDSSGYYPDAFDIWGQGTMVTVSS VL: DIQMTQSPSSLSASVGDRVTITCRASQGIRNDLGWYQQKPGKAPKRLIYAASSLQSGVPSRFSGSGSGTEFTLTISSLQPEDFATYYCLQHNSYPFTFGPGTKVEIK | 412 nM | 412 nM | 0.00667 s⁻¹ | 16200 M⁻¹ s⁻¹ | – |
| A21 (antibody, V domains shown, Tested as full-length mAb expressed in CHO cells; also called antibody 21; L21H21) VH: QVQLVQSGAEVKKPGASVKVSCKASGYTFTSYYMHWVRQAPGQGLEWMGIINPSGSSTSYAQKFQGRVTMTRDTSTSTVYMELSSLRSEDTAVYYCARYGVWGSYRSLDYWGQGTLVTVSS VL: AIQMTQSPSSLSASVGDRVTITCRASQGIRNELGWYQQKPGKAPKLLICAASSLQSGVPSRFSGSGSGTDFTLTISSLQPEDFATYYCLQDYIYPYTFGQGTKLEIK | 13 nM | 13 nM | 0.00142 s⁻¹ | 110000 M⁻¹ s⁻¹ | – |
| A12 (antibody, V domains shown, Tested as full-length mAb expressed in CHO cells; also called antibody A12; L12H12) VH: QVQLVESGGGVVQPGRSLRLSCAASGFTFSSYGMHWVRQAPGKGLEWVAVIWYDGSNKYYADSVKGRFTISRDNSKNTLYLQMNSLRAEDSAVYYCVCNPFDYWGQGTLVTVSS VL: DIQMTQSPSSLSASVGDRVTVTCRSSQGIAHYLAWYQQKPGKVPKVLLYAASTLQSGVPSRFSGSGSGTDFTLTISSLQPEDVATYYCQKYNSAPYTFGQGTKLEIK | 5.1 nM | 5.05 nM | 0.000516 s⁻¹ | 102000 M⁻¹ s⁻¹ | 3.16 µg/mL |

Further lines, results first:

| Kd [1] | Kd [2] | koff [2] | kon [2] | PD-1/PD-L1 blockage (IC50, µg/ml) [3] | Binder |
| --- | --- | --- | --- | --- | --- |
| 18.4 nM | 18.4 nM | 0.00228 s⁻¹ | 124000 M⁻¹ s⁻¹ | – | A18 (antibody, V domains shown, Tested as full-length mAb expressed in CHO cells; also called antibody 18; L18H18) VH: QVQLVQSGTEVKKPGASVKVSCQASGYTFTSYDISWVRRAPGQGLEWMGWISAYNGNTNYAQKLQGRVTLTTDTSTSTAYMELRSLRSDDTAVYYCARRYYDILTEGGYYYVLDVWGQGTTVTVSS VL: AIRMTQSPSSFSASTGDRVTITCRASQGISSYLAWYQQKPGKAPTLLIYAASTLQSGVPSRFSGSGSGTDFTLTISCLQSEDFATYYCQQYYSDPPTFGQGTKVEIK |
| 86.7 nM | 86.7 nM | 0.00294 s⁻¹ | 33900 M⁻¹ s⁻¹ | – | A13 (antibody, V domains shown, Tested as full-length mAb expressed in CHO cells; also called antibody A13; L13H13) VH: QVQLVQSGAEVKKPGASVKVSCKASGYTFTTYGISWVRQAPGQGLEWMGWISAHNGNTNYAQKFQGRVTMTTDTSTSTAYMELRSLRSDDTAVYYCVRDGAVADYYYGMDVWGQGTTVTVSS VL: not shown |
| 148 nM | 148 nM | 0.00191 s⁻¹ | 13000 M⁻¹ s⁻¹ | – | A20 (antibody, V domains shown, Tested as full-length mAb expressed in CHO cells; also called antibody 20; L20H20) VH: EVQLVESGGGLVQPGGSLRLSCAASGFTFSFYDMHWVRQAKGKGLEWVSAIGTAGDTYYPGSVKGRFTISRENAKNSLYLQMNSLRAGDTAVYYCARGYCSTTNCFADYFDYWGQGTLVTVSS VL: DIQLTQSPSFLSASVGDRVTITCRASQGISNYLAWYQQKPGKAPKLLIYAASTLQSGVPSRFSGSGSGTEFTLTISSLQPEDFATYYCHQLNSFPLTFGGGTKVEIK |
| 792 nM | 792 nM | 0.0579 s⁻¹ | 73100 M⁻¹ s⁻¹ | – | A25 (antibody, V domains shown, Tested as full-length mAb expressed in CHO cells; also called antibody 25; L25H25) VH: QVQLVESGGGVVQPGRSLRLSCAASGFTFSSYGMHWVRQAPGKGLEWVGVIWYDGSIKYYADSVKGRFTISRDNSMNTLNLQMNSLRAEDTAVYYCAGDILTGSFDYWGQGTLVTVSS VL: EIVLTQSPATLSLSPGERATLSCRASQSVSSYLAWYQQKPGQAPRLLIYDASNRATGIPARFSGSGSGTDFTLTISSLEPEDFAVYYCQQRNNWPYTFGQGTKLEIK |
| 326 nM | 326 nM | 0.0079 s⁻¹ | 24200 M⁻¹ s⁻¹ | 0.533 µg/mL | A17 (antibody, V domains shown, Tested as full-length mAb expressed in CHO cells; also called antibody 17; L17H17) VH: QVQLVESGGGVVQPGRSLRLSCAASGFTFSSYGMHWVRQAPGKGLEWVAVIWYDGSNQYYADSVKGRFTISRDNSKNTLFLQMNSLRAEDTAVYFCAGGGNYYGDFWGQGTLVTVSS VL: DIQMTQSPSSLSASVGDRVTITCRASQGIRNDLGWYQQKPGKAPKRLIYAASSLQSGVPSRFSGSGSGTEFTLTISSLQPEDFATYYCLQYISYPWTFGQGTKVEIK |
| 57.1 nM | 57.1 nM | 0.00107 s⁻¹ | 18700 M⁻¹ s⁻¹ | > 3.16 µg/mL | A19 (antibody, V domains shown, Tested as full-length mAb expressed in CHO cells; also called antibody 19; L19H19) VH: QVQLVESGGGVVQPGRSLRLSCAASGFTFSNYGMYWVRQAPGKGLEWVAVIWYDGSNKYYADSVKGRFTISRDNSKNTLYLQMNSLRAEDTAVYYCAGGGDILTGDYWGQGTLVTVSS VL: DIQMTQSPSSLSASVGDRVTITCRASQGIRNDLGWYQQKPGKAPKRLIYAASSLQSGVPSRFSGSGSGTEFTLTISSLQPEDFATYYCLQYKSYLYTFGQGTKLEIK |
| 6 nM | 5.98 nM | 0.00104 s⁻¹ | 174000 M⁻¹ s⁻¹ | 0.641 µg/mL | A26 (antibody, V domains shown, Tested as full-length mAb expressed in CHO cells; also called antibody 26; L26H26) VH: QVQLVESGGGVVQPGRSLRLSCAASGFTFSDYGMHWVRQAPGKGLEWVAVIWYDGSNKYYTDSVKGRFTISRDNSKNTLYLQMSSLRAEDAAVYYCAVNPFDYWGQGTLVTVSS VL: DIQMTQSPSSLSASVGDRVTISCRASQGISNYLAWYQQKPGKVPKVLIYGASTLQSGVPSRFSGSGSGTDFTLTISSLQPEDVATYYCQKYNSAPYTFGQGTKLEIK |
